The target of test [1] is T1, FcγRIa extracellular domain with C-terminal His tag (human, UniProt P12314 16-292).
T1 construct: extracellular domain; Soluble receptor used as analyte in Biacore; also called FcgRI; FcgRIa
The experiment in a line: SPR Biacore, antibody captured on antigen-peptide chip, FcγR as analyte.

The target of test [2] is T2, FcγRIIb extracellular domain with C-terminal His tag (human, UniProt P31994 43-217).
T2 construct: extracellular domain; Soluble receptor used as analyte in Biacore; also called FcgRIIb; CD32B
T2 sequence (looked up): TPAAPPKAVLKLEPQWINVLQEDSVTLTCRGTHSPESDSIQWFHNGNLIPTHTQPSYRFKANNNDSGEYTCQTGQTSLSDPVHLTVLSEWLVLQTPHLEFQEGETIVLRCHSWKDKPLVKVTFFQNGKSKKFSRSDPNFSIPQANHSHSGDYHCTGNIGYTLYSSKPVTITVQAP
The test is described as above.

The record followed here is US20150344570A1 (published 2015).

T1 sequence (P12314 16-292): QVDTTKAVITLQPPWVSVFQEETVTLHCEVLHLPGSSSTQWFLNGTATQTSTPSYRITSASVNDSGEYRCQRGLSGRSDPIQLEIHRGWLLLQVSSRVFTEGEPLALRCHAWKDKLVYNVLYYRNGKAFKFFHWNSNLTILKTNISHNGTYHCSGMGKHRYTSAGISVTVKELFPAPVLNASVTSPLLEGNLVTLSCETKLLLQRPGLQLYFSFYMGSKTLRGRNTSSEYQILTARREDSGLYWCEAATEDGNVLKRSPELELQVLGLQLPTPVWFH

B1: GpH7-A5/GpH7-B3 variant E269_01G/GpL16-k0 (antibody, human IgG1, kappa)
heavy 1: not shown
heavy 2: not shown
light: DIVMTQSPLSLPVTPGEPASISCQASESLVHSNRNTYLHWYLQKPGQSPQLLIYKVSNRFSGVPDRFSGSGSGTDFTLKISRVEAEDVGVYYCSQNTHVPPTFGQGTKVEIERTVAAPSVFIFPPSDEQLKSGTASVVCLLNNFYPREAKVQWKVDNALQSGNSQESVTEQDSKDSTYSLSSTLTLSKADYEKHKVYACEVTHQGLSSPVTKSFNRGEC
notes: Heterodimerized anti-glypican-3 IgG1; mutation in the GpH7-B3 chain only; also called He Ab E269G
For B1, in test [1], the He/Con_1a was 104 relative, GpH7-A5/GpH7-B3/GpL16-k0 = 100. In addition, the He/Con_2b in test [2] was 51.5 relative, GpH7-A5/GpH7-B3/GpL16-k0 = 100.

B2: GpH7-A5/GpH7-B3 variant E269_12R/GpL16-k0 (antibody, human IgG1, kappa)
heavy 1: not shown
heavy 2: not shown
light: DIVMTQSPLSLPVTPGEPASISCQASESLVHSNRNTYLHWYLQKPGQSPQLLIYKVSNRFSGVPDRFSGSGSGTDFTLKISRVEAEDVGVYYCSQNTHVPPTFGQGTKVEIERTVAAPSVFIFPPSDEQLKSGTASVVCLLNNFYPREAKVQWKVDNALQSGNSQESVTEQDSKDSTYSLSSTLTLSKADYEKHKVYACEVTHQGLSSPVTKSFNRGEC
notes: Heterodimerized anti-glypican-3 IgG1; mutation in the GpH7-B3 chain only; also called He Ab E269R
For B2, in test [1], the He/Con_1a is 97.1 relative, GpH7-A5/GpH7-B3/GpL16-k0 = 100. Further, in test [2], the He/Con_2b is 25.2 relative, GpH7-A5/GpH7-B3/GpL16-k0 = 100.

B3: GpH7-A5/GpH7-B3 variant E269_07I/GpL16-k0 (antibody, human IgG1, kappa)
heavy 1: not shown
heavy 2: not shown
light: DIVMTQSPLSLPVTPGEPASISCQASESLVHSNRNTYLHWYLQKPGQSPQLLIYKVSNRFSGVPDRFSGSGSGTDFTLKISRVEAEDVGVYYCSQNTHVPPTFGQGTKVEIERTVAAPSVFIFPPSDEQLKSGTASVVCLLNNFYPREAKVQWKVDNALQSGNSQESVTEQDSKDSTYSLSSTLTLSKADYEKHKVYACEVTHQGLSSPVTKSFNRGEC
notes: Heterodimerized anti-glypican-3 IgG1; mutation in the GpH7-B3 chain only; also called He Ab E269I
B3: in test [1], the He/Con_1a is 103 relative, GpH7-A5/GpH7-B3/GpL16-k0 = 100. The He/Con_2b in test [2] was 43.9 relative, GpH7-A5/GpH7-B3/GpL16-k0 = 100.

B4: GpH7-A5/GpH7-B3 variant E269_08L/GpL16-k0 (antibody, human IgG1, kappa)
heavy 1: not shown
heavy 2: not shown
light: DIVMTQSPLSLPVTPGEPASISCQASESLVHSNRNTYLHWYLQKPGQSPQLLIYKVSNRFSGVPDRFSGSGSGTDFTLKISRVEAEDVGVYYCSQNTHVPPTFGQGTKVEIERTVAAPSVFIFPPSDEQLKSGTASVVCLLNNFYPREAKVQWKVDNALQSGNSQESVTEQDSKDSTYSLSSTLTLSKADYEKHKVYACEVTHQGLSSPVTKSFNRGEC
notes: Heterodimerized anti-glypican-3 IgG1; mutation in the GpH7-B3 chain only; also called He Ab E269L
Turning to B4, the He/Con_1a in test [1] is 104 relative, GpH7-A5/GpH7-B3/GpL16-k0 = 100. In test [2], the He/Con_2b was 42.9 relative, GpH7-A5/GpH7-B3/GpL16-k0 = 100.

B5: GpH7-A5/GpH7-B3 variant E269_15Y/GpL16-k0 (antibody, human IgG1, kappa)
heavy 1: not shown
heavy 2: not shown
light: DIVMTQSPLSLPVTPGEPASISCQASESLVHSNRNTYLHWYLQKPGQSPQLLIYKVSNRFSGVPDRFSGSGSGTDFTLKISRVEAEDVGVYYCSQNTHVPPTFGQGTKVEIERTVAAPSVFIFPPSDEQLKSGTASVVCLLNNFYPREAKVQWKVDNALQSGNSQESVTEQDSKDSTYSLSSTLTLSKADYEKHKVYACEVTHQGLSSPVTKSFNRGEC
notes: Heterodimerized anti-glypican-3 IgG1; mutation in the GpH7-B3 chain only; also called He Ab E269Y
For the molecule B5, in test [1], the He/Con_1a is 106 relative, GpH7-A5/GpH7-B3/GpL16-k0 = 100. In test [2], the He/Con_2b is 44.7 relative, GpH7-A5/GpH7-B3/GpL16-k0 = 100.

B6: GpH7-A5/GpH7-B3 variant E269_16H/GpL16-k0 (antibody, human IgG1, kappa)
heavy 1: not shown
heavy 2: not shown
light: DIVMTQSPLSLPVTPGEPASISCQASESLVHSNRNTYLHWYLQKPGQSPQLLIYKVSNRFSGVPDRFSGSGSGTDFTLKISRVEAEDVGVYYCSQNTHVPPTFGQGTKVEIERTVAAPSVFIFPPSDEQLKSGTASVVCLLNNFYPREAKVQWKVDNALQSGNSQESVTEQDSKDSTYSLSSTLTLSKADYEKHKVYACEVTHQGLSSPVTKSFNRGEC
notes: Heterodimerized anti-glypican-3 IgG1; mutation in the GpH7-B3 chain only; also called He Ab E269H
As for B6, the He/Con_1a in test [1] is 106 relative, GpH7-A5/GpH7-B3/GpL16-k0 = 100. The He/Con_2b in test [2] is 38.5 relative, GpH7-A5/GpH7-B3/GpL16-k0 = 100.

B7: GpH7-A5/GpH7-B3 variant E269_04F/GpL16-k0 (antibody, human IgG1, kappa)
heavy 1: not shown
heavy 2: not shown
light: DIVMTQSPLSLPVTPGEPASISCQASESLVHSNRNTYLHWYLQKPGQSPQLLIYKVSNRFSGVPDRFSGSGSGTDFTLKISRVEAEDVGVYYCSQNTHVPPTFGQGTKVEIERTVAAPSVFIFPPSDEQLKSGTASVVCLLNNFYPREAKVQWKVDNALQSGNSQESVTEQDSKDSTYSLSSTLTLSKADYEKHKVYACEVTHQGLSSPVTKSFNRGEC
notes: Heterodimerized anti-glypican-3 IgG1; mutation in the GpH7-B3 chain only; also called He Ab E269F
B7: the He/Con_1a in test [1] was 103 relative, GpH7-A5/GpH7-B3/GpL16-k0 = 100. In test [2], the He/Con_2b was 45 relative, GpH7-A5/GpH7-B3/GpL16-k0 = 100.

B8: GpH7-A5/GpH7-B3 variant E269_14T/GpL16-k0 (antibody, human IgG1, kappa)
heavy 1: not shown
heavy 2: not shown
light: DIVMTQSPLSLPVTPGEPASISCQASESLVHSNRNTYLHWYLQKPGQSPQLLIYKVSNRFSGVPDRFSGSGSGTDFTLKISRVEAEDVGVYYCSQNTHVPPTFGQGTKVEIERTVAAPSVFIFPPSDEQLKSGTASVVCLLNNFYPREAKVQWKVDNALQSGNSQESVTEQDSKDSTYSLSSTLTLSKADYEKHKVYACEVTHQGLSSPVTKSFNRGEC
notes: Heterodimerized anti-glypican-3 IgG1; mutation in the GpH7-B3 chain only; also called He Ab E269T
Consider B8, for which, in test [1], the He/Con_1a was 106 relative, GpH7-A5/GpH7-B3/GpL16-k0 = 100. For the same molecule, the He/Con_2b in test [2] is 50.6 relative, GpH7-A5/GpH7-B3/GpL16-k0 = 100.
